Data as given in patent US20190106487A1 (Sanofi, published 2019).

T1: human IL-1RAcP on 293T/17-FR cells (human, UniProt Q9NPH3 21-570)
T1 sequence (looked up): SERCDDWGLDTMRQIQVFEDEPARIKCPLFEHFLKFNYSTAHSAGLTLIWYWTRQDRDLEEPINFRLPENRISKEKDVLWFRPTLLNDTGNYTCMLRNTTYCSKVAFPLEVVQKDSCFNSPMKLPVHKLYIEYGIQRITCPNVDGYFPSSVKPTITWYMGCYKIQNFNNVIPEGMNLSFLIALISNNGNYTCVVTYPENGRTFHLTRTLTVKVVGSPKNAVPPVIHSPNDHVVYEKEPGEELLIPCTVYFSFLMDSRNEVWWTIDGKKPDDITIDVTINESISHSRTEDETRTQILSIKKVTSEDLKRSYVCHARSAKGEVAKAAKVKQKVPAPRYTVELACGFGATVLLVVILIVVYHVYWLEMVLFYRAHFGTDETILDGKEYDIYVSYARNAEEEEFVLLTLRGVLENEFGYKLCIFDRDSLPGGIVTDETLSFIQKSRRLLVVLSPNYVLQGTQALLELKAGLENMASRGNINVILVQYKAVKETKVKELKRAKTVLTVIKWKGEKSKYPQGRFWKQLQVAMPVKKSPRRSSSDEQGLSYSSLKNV

T2: rhIL-1RAcP/Fc Chimera (human, UniProt Q9NPH3 21-359)
T2 construct: also called P013_03; P013-03
T2 sequence (looked up): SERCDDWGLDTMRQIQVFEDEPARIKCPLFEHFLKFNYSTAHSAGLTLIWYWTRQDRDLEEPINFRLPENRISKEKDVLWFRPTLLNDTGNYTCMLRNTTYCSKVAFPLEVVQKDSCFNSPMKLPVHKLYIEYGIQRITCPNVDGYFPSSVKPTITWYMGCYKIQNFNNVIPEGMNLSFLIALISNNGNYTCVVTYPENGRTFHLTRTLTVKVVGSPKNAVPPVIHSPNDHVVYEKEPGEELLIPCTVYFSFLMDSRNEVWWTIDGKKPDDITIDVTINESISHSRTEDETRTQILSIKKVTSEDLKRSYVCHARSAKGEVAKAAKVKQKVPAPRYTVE


Columns and labels:
[1] = target: T1, human IL-1RAcP on 293T/17-FR cells; test: cell-based or functional assay
rhIL-1RAcP/Fc Chimera [2] = target: T2, rhIL-1RAcP/Fc Chimera; test: ELISA, recombinant purified mAb
rhIL-1RAcP/Fc Chimera [3] = target: T2, rhIL-1RAcP/Fc Chimera; test: ELISA, primary supernatant, coated hu-IL-1RAcP-Fc
Description: Microtiter plates were coated IL-1RACP and/or IL12Rβ1 protein (recombinant Fc chimeric conjugates of human IL-1RACP or IL12Rβ1). After a blocking process, specific antibodies from B-cell supernatants bind to the targets and are then detected by a POD-labeled anti-rabbit IgG antibody. The IL12Rβ1 binding was used as a counterscreen. IL-1RACP protein was tagged with a linker, huFc and His like the IL12Rβ1 protein. Antibodies which bind to the tag were positive in both assays, whereas antigen specific antibodies just bound to IL-1RACP and not to IL12Rβ1.
12.5 μL 0.5 μg/mL IL-1RACP protein in PBS was transferred to a microtiter plate, incubated and washed 3× with Wash Buffer. 90 μL Block Buffer was added to each well, incubated and washed. 12.5 μl Standard Antibody (rabbit mAb against IL-1RAcP, anti IL12Rbeta1 antibody: IL-12Rbeta1 antibody; GeneTex; Cat. No. GTX103917) or sample diluted in ELISA buffer was added, incubated and washed. 12.5 μl 1:5000 POD-Antibody (Anti-rabbit IgG, peroxidase-linked species-specific Fab2 fragment (from donkey) (ECL); assay dilution: 1:5000) in Elisa Buffer was added, incubated and washed. 15 μl TMB was added and 15 μl HCl was added after sufficient development. Absorbance (Optical Density O.D.) was read at 450 nm/620 nm.

functional reporter gene assay (% inhibition), 0.04 µg/mL mAb [1] [%] | functional reporter gene assay (% inhibition), 0.2 µg/mL mAb [1] [%] | functional reporter gene assay (% inhibition), 1 µg/mL mAb [1] [%] | functional reporter gene assay (% inhibition), 5 µg/mL mAb [1] [%] | primary supernatant functional assay (% inh.), NF-kB luciferase reporter [1] [%] | EC50 (rhIL-1RAcP/Fc Chimera [2]) [µg/mL] | hu-IL1RaP ELISA (OD) (rhIL-1RAcP/Fc Chimera [3]) | Binder
6 | 12 | 16 | 25 | 37 | 0.363 | 3.3 | P013.S.02.B.E03 (antibody, V domains shown, rabbit monoclonal antibody; also called P013.A.00091.A10) VH: QSVEESGGRLVTPGTPLTLTCTVSGFSLSDYYMGWVRQAPGKGLEWIGTIDGGGSTYYASWAKGRFTVSKTSTTVDLTITSPTTEDTAIYFCARNYYAGLSDVFFGWWGQGTLVTVSS VL: DVVMTQTPASVEAAVGGTVTIMCQASETIYSGLAWYQQKPGQPPKLLIYYTSSLASGVPSRFKGSGSGTEFTLTISDLESADAATYYCQTYYDSEGRSYGYNSFGGGTEVVVK
29 | 26 | 40 | 91 | 65 | 0.758 | 2.7 | P013.S.02.B.C04 (antibody, V domains shown, rabbit monoclonal antibody; also called P013.A.00085.H07) VH: QQLEQSGGGLVKPGGSLELCCKASGFSLSSSYWICWVRQAPGKGLEWIGCIYAGSSGSTYYANWVNGRFTLSRDIDQSTGCLQLSSLTAADTAMYYCARSIVDFSSGWGDLWGQGTLVTVSS VL: ALVMTQTPSPVSAAVGGTVTINCQASEDIYSNLAWYQQKPGQPPKLLMYGVSTLASGVPSRFSDSGSGTEFTLTISGLQSDDAATYYCLGVYTYISDVYYTFGGGTEVVVK
10 | 49 | 49 | 54 | 35 | 0.062 | 3.7 | P013.S.01.B.H04 (antibody, V domains shown, rabbit monoclonal antibody; also called P013.A.00014.G05) VH: QSVEESGGRLVTPGTPLTLTCTVSGFSLDSYAMGWVRQAPGKGLEWIGIINSYGSIYYASWAKGRFTISKTSTTVDLKMTSLTTEDTATYFCARSAYSNNGDRLHLWGQGTLVTVSS VL: DIVMTQTPSPVSGAVGGTVTIKCQASEDIYSNLAWYQQKPGQPPKLLIYYVSTLESGVPSRFKGSRSGTDYTLTISDLESADAATYYCQCTEGGSGSDYTFGGGTEVVVK
67 | 74 | 87 | 95 | 27 | 0.038 | 2.5 | P013.S.01.B.C05 (antibody, V domains shown, rabbit monoclonal antibody; also called P013.A.00045.E06) VH: QSVEESGGRLVTPGTPLTLTCTVSGFSLSNYAMSWVRQAPGKGLEYIGIIDSGGSAYYATWARGRFTISRTSTTVDLKMTSPTTEDTATYFCARGGPAYSTNTHYTLDLWGPGTLVTVSS VL: AFEMTQTPSSVSEPVGGTVTIKCQASQSIYNYLSWYQQKPGQPPKLLIYDASELASGVPSRFKGSGSGTEFTLTISGVQSDDAATYYCQQGATTYNIENVFGGGTEVVVK
75 | 84 | 94 | 98 | 97 | 0.175 | 3.6 | P013.S.01.B.B02 (antibody, V domains shown, rabbit monoclonal antibody; also called P013.A.00014.B03) VH: LEQSGGGAEGGLVKPGGSLELCCKASGFSLSSSYWICWVRQAPGKGLEWIGCIYTGSSGITYYASWVNGRFTLSRDIDQSTGCLQLNSLTAADTAMYYCAKDGPSTLFNFWGQGTLVTVSS VL: ALVMTQTPSPVSAAVGGTVTINCQASEDIYSNLAWFQQKPGQPPKLLIYRASTLASGVPSRFKGSGSGTEFTLTISGLQSDDAATYYCLGVYTYPSADNAFGGGTEVVVR
24 | 66 | 96 | 97 | 80 | 0.053 | 3.7 | P013.S.01.B.D06 (antibody, V domains shown, rabbit monoclonal antibody; also called P013.A.00029.D02) VH: QSLEESGGDLVKPGASLTLTCTASGFSFSSSYYMCWVRQAPGKGLEWIACIYAGSSGVTYYASWAKGRFTISDTSSTTVTLQMTSLTAADTATYFCASETDGNYFNLWGPGTLVTVSS VL: ALVMTQTPSPVSAAVGGTVTINCQASEDIYSNLAWFQQKPGQPPKLLIYRASTLASGVPSRFSGSGSGTEFTLTISGLQSDDAATYYCLGVYTYSTDIHAFGGGTEVVVK
18 | 78 | 99 | 98 | 82 | 0.105 | 3.4 | P013.S.01.B.C02 (antibody, V domains shown, rabbit monoclonal antibody; also called P013.A.00014.C10) VH: QSLEESGGDLVKPGASLTLTCTASGFSFSSSHYMCWVRQAPGKGLEWIACIYAGSSGNTYYANWAKGRFTISKTSSTTVTLQMTSLTAADTATYFCARVDASSSGSWDLWGPGTLVTVSS VL: AIEMTQTPFSVSAAVGGTVTINCQASESIYSNLAWYQQILGQPPKLLIYAASLLASGVPSRFKGSGSGTEYTLTISGVQSADAATYYCQSASYSTGPDWTFGGGTEVVVE
44 | 60 | 93 | 91 | 72 | 0.447 | 3.4 | P013.S.01.B.E06 (antibody, V domains shown, rabbit monoclonal antibody; also called P013.A.00030.F07) VH: QSLEESGGDLVKPGASLTLTCTASGFSFSSTYYMCWVRQAPGKGLEWIACIYAGSSGSTYYASWAKGRFTISKTSSTTVTLQMTSLTAADTATYFCARVDGSSSGSWDLWGPGTLVTVSS VL: AIEMTQTPSSVSAAVGGTVTINCQASQNIYSNLAWYQQKPGQRPKLLIYAASLLASGVPSRFKGNGSGTEYTLTISDLESADAATYYCQGAVYSGNTEWAFGGGTEVVVK
39 | 62 | 88 | 98 | 88 | 0.072 | 3.3 | P013.S.01.B.E04 (antibody, V domains shown, rabbit monoclonal antibody; also called P013.A.00109.D07) VH: QSVEESGGRLVTPGTPLTLTCTVSGIDLNSNGINWVRQAPGKGLEWIGYIGAGDITYCASWAKGRFTISKTSSTTVDLKITSLTTEDTATYFCARWGPGALDLWGQGTLVTVSS VL: AQVLTQTASSVSATVGGTVTISCQSSQSVYNNNYLSWYQQKPGQPPKLLIYKASTLASGVPLRFSGSGSGTQFTLTISGVQSDDAATYYCAGFYETTDVGFGGGTEVVVK
69 | 49 | 94 | 96 | 89 | 0.115 | 3.8 | P013.S.01.B.G06 (antibody, V domains shown, rabbit monoclonal antibody; also called P013.A.00085.H05) VH: QSLEESGGRLVTPGTPLTLTCTASGFTISSYYMSWVRQAPGKGLEWIGGIATDGNTYYANWAKGRFTVSRTSTTVDLKVTSPTAEDTATYFCARGGPAYSRGTHYAMDLWGPGTLVTVSS VL: AYDMTQTPASVEVAVGGTVTIKCQASQSIYIYLAWYQQKPGQRPKQLIYDASKLASGVPSRFSGSGSGTEFTLTISGVESADAATYYCQQGATIWNVDNPFGGGTEVVVK
